Reference: paper doi:10.1101/099705
Where “and” joins values, the source holds several entries; their conditions need not be identical. Equal values may be shown once. Read-outs that look alike come from different tables or passages of the source. Each block holds one molecule with its values, some of them ahead of it.

What was measured:
[1] = target: TbMP18-FL (T. brucei (strain Lister 427)); test: SEC
[2] = target: TbMP24-OB (T. brucei (strain Lister 427)); test: SEC
[3] = target: TbMP81-OB (T. brucei (strain Lister 427)); test: SEC
[4] = target: TbMP42-FL (T. brucei (strain Lister 427)); test: SEC
[5] = target: TbMP18-FL (T. brucei (strain Lister 427))
[6] = target: TbMP81-FL (T. brucei (strain Lister 427)); test: SEC
[7] = target: TbMP42-OB (T. brucei (strain Lister 427)); test: SEC
[8] = target: TbMP18-FL (T. brucei (strain Lister 427)); test: SEC; remark: listed apart in the source

- stoichiometry N (TbMP24-OB:TbMP18-FL (molar ratio)) [1]: 2
- stoichiometry N [2]: 3
Molecule: TbMP24-OB (domain or fragment)

- stoichiometry N [1]: 4
Molecule: TbMP18-FL (natural protein)

- stoichiometry N [3]: 2
Molecule: TbMP81-OB (domain or fragment)

- stoichiometry N [4]: 3
Molecule: TbMP42-FL (natural protein)

- stoichiometry N (TbMP24-FL:TbMP18-FL (molar ratio)) [5]: 1.1
- stoichiometry N (TbMP24-FL:TbMP18-FL (molar ratio)) [1]: 2 and 1.5
Molecule: TbMP24-FL (natural protein)

Molecule: TbMP81-FL (natural protein)
- stoichiometry N [6]: 2

- stoichiometry N [7]: 3
Molecule: TbMP42-OB (domain or fragment)

- stoichiometry N (TbMP63-OB:TbMP18-FL (molar ratio)) [5]: 0.67
- stoichiometry N (TbMP63-OB:TbMP18-FL (molar ratio)) [8]: 1 and 1.5
B1: TbMP63-OB (domain or fragment)
chain: SAIGASWAETELIPHAQCVSNITIVGRVLDVSQASENVSHVTVFVEGERSGEEETLTLCCFGEVSQKIRGTLKRNATIFASGTLRLHPVYEASNNKYYVSPVVHVSMPTGTLAVIT
